# Test results published in patent publication US20180177842A1 (CANIMGUIDE THERAPEUTICS, published 2018).
# Ends that are not written are not given here.
# Target: T1, His-tagged P3028 (human, also: His tag, length and end not given here)
# T1 construct: in solution at 0.5 ug/mL, detected with mouse anti-His antibody and rabbit anti-mouse peroxidase (rampo); also called PGE73; His-tag-P3028; not shown: His tag
# T1 peptide: VFDEFKPLVEEPQNLIK
# Assay: PEPSCAN ELISA, peptide on chip;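 note: binding detected by peroxidase ELISA with ABTS, OD405 colour imaged by CCD camera before and after staining, raw OD405 reported as rampo units, air-bubble wells scored 0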
row,Binder,RAMPO Score
1,AKLDTFFVKLSLFTER [SEQ ID NO 268],466 rampo units
2,EKLDTFFVKLSLFTER [SEQ ID NO 270],396 rampo units
3,GKLDTFFVKLSLFTER [SEQ ID NO 271],367 rampo units
4,HKLDTFFVKLSLFTER [SEQ ID NO 272],428 rampo units
5,DKLDTFFVKLSLFTER [SEQ ID NO 269],373 rampo units

# Target: T2, P3028 (VFDEFKPLVEEPQNLIK, SEQ ID NO: 185), His-tagged (human)
# T2 construct: Synthetic fragment of human serum albumin (positions 397-413); used in solution as His-tagged peptide PGE73; also called PGE73; not shown: His-tag
# T2 peptide: VFDEFKPLVEEPQNLIK
# Assay: PEPSCAN ELISA; peptide on chip, His-P3028 added;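 note: peroxidase color development with ABTS and H2O2 substrate, OD405 imaged by CCD camera with image processing and taken as raw values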
row,Binder,RAMPO Score
1,KKLGTFFVKLSLFTER [KKLGTFFVKLSLFTER (SEQ ID NO: 515)],264 rampo units
2,"KKLDTFFKKLSLFTER (also called SCF 27; SCF27) [P27 (KKLDTFFKKLSLFTER, SEQ ID NO: 264)]",253 rampo units
3,KYLDTFFVKLSLFTER [KYLDTFFVKLSLFTER (SEQ ID NO: 494)],301 rampo units
4,KNLDTFFVKLSLFTER [KNLDTFFVKLSLFTER (SEQ ID NO: 402)],432 rampo units
5,KTLDTFFVKLSLFTER [KTLDTFFVKLSLFTER (SEQ ID NO: 468)],331 rampo units
6,KPLDTFFVKLSLFTER [KPLDTFFVKLSLFTER (SEQ ID NO: 405)],425 rampo units
7,KKLTTFFVKLSLFTER [KKLTTFFVKLSLFTER (SEQ ID NO: 413)],405 rampo units
8,KKRDTFFVKLSLFTER [KKRDTFFVKLSLFTER (SEQ ID NO: 294)],370 rampo units
9,TKLDTFFVKLSLFTER [TKLDTFFVKLSLFTER (SEQ ID NO: 280)],493 rampo units
10,KKLYTFFVKLSLFTER [KKLYTFFVKLSLFTER (SEQ ID NO: 303)],422 rampo units
11,KKLITFFVKLSLFTER [KKLITFFVKLSLFTER (SEQ ID NO: 300)],430 rampo units
12,KKLMTFFVKLSLFTER [KKLMTFFVKLSLFTER (SEQ ID NO: 423)],384 rampo units
13,KKYDTFFVKLSLFTER [KKYDTFFVKLSLFTER (SEQ ID NO: 452)],344 rampo units
14,YKLDTFFVKLSLFTER [YKLDTFFVKLSLFTER (SEQ ID NO: 483)],315 rampo units
15,KKLQTFFVKLSLFTER [KKLQTFFVKLSLFTER (SEQ ID NO: 448)],345 rampo units
16,RKLDTFFVKLSLFTER [RKLDTFFVKLSLFTER (SEQ ID NO: 279)],523 rampo units
17,KKLWTFFVKLSLFTER [KKLWTFFVKLSLFTER (SEQ ID NO: 302)],443 rampo units
18,KKLRTFFVKLSLFTER [KKLRTFFVKLSLFTER (SEQ ID NO: 480)],317 rampo units
19,QKLDTFFVKLSLFTER [QKLDTFFVKLSLFTER (SEQ ID NO: 278)],455 rampo units
20,KKLSTFFVKLSLFTER [KKLSTFFVKLSLFTER (SEQ ID NO: 451)],344 rampo units
21,KKLNTFFVKLSLFTER [KKLNTFFVKLSLFTER (SEQ ID NO: 498)],296 rampo units
22,KKTDTFFVKLSLFTER [KKTDTFFVKLSLFTER (SEQ ID NO: 296)],451 rampo units
23,KWLDTFFVKLSLFTER [KWLDTFFVKLSLFTER (SEQ ID NO: 490)],304 rampo units
24,WKLDTFFVKLSLFTER [WKLDTFFVKLSLFTER (SEQ ID NO: 507)],284 rampo units

row,Binder,RAMPO Score
1,KKWDTFFVKLSLFTER [KKWDTFFVKLSLFTER (SEQ ID NO: 458)],341 rampo units
2,VKLDTFFVKLSLFTER [VKLDTFFVKLSLFTER (SEQ ID NO: 281)],442 rampo units
3,KKLHTFFVKLSLFTER [KKLHTFFVKLSLFTER (SEQ ID NO: 479)],317 rampo units
4,KKPDTFFVKLSLFTER [KKPDTFFVKLSLFTER (SEQ ID NO: 436)],361 rampo units
5,KRLDTFFVKLSLFTER [KRLDTFFVKLSLFTER (SEQ ID NO: 407)],417 rampo units
6,KVLDTFFVKLSLFTER [KVLDTFFVKLSLFTER (SEQ ID NO: 481)],317 rampo units
7,KMLDTFFVKLSLFTER [KMLDTFFVKLSLFTER (SEQ ID NO: 417)],400 rampo units
8,KLLDTFFVKLSLFTER [KLLDTFFVKLSLFTER (SEQ ID NO: 454)],343 rampo units
9,KKLKTFFVKLSLFTER [KKLKTFFVKLSLFTER (SEQ ID NO: 512)],274 rampo units
10,KKMDTFFVKLSLFTER [KKMDTFFVKLSLFTER (SEQ ID NO: 291)],460 rampo units
11,KKSDTFFVKLSLFTER [KKSDTFFVKLSLFTER (SEQ ID NO: 295)],393 rampo units
12,KQLDTFFVKLSLFTER [KQLDTFFVKLSLFTER (SEQ ID NO: 440)],350 rampo units
13,KKLLTFFVKLSLFTER [KKLLTFFVKLSLFTER (SEQ ID NO: 491)],303 rampo units
14,KKVDTFFVKLSLFTER [KKVDTFFVKLSLFTER (SEQ ID NO: 297)],377 rampo units
15,MKLDTFFVKLSLFTER [MKLDTFFVKLSLFTER (SEQ ID NO: 275)],457 rampo units
16,KKLPTFFVKLSLFTER [KKLPTFFVKLSLFTER (SEQ ID NO: 435)],364 rampo units
17,KSLDTFFVKLSLFTER (also called 30684) [KSLDTFFVKLSLFTER (SEQ ID NO: 510)],281 rampo units
18,KKQDTFFVKLSLFTER [KKQDTFFVKLSLFTER (SEQ ID NO: 293)],473 rampo units
19,KKNDTFFVKLSLFTER [KKNDTFFVKLSLFTER (SEQ ID NO: 292)],374 rampo units
20,NKLDTFFVKLSLFTER [NKLDTFFVKLSLFTER (SEQ ID NO: 276)],445 rampo units
21,PKLDTFFVKLSLFTER [PKLDTFFVKLSLFTER (SEQ ID NO: 277)],387 rampo units
22,LKLDTFFVKLSLFTER [LKLDTFFVKLSLFTER (SEQ ID NO: 274)],449 rampo units
23,SKLDTFFVKLSLFTER [SKLDTFFVKLSLFTER (SEQ ID NO: 453)],344 rampo units
